Experiments:
DAUDI (CD20+) cells = type: cell-based
RS411 cells = type: cell-based
RAJI cells = assay: JNG (Jurkat NFAT-GFP) cells expressing SAR: GFP induction on co-culture with RAJI
L428 cells = assay: JNG assay, co-culture with L428 cells; type: cell-based
Method: Cellular supernatant is collected and assayed for the induction of cytokines (e.g., IL2).
JNG (Jurkat cells expressing EGFP under an NFAT promoter) were infected with lentiviral vectors encoding different single chain and multi-chain SARs by spinfection in the presence of 8 µg/ml of Polybrene® (Sigma, Catalog no. H9268). The Jurkat-NFAT-GFP cells are engineered in such a way that the IL-2 promoter, which carries NFAT binding sites, is cloned upstream of the GFP gene. These cells have been used to study signaling via TCR and CAR. The different SARs were stably expressed in Jurkat NFAT-GFP cells by lentiviral mediated gene transfer, followed by selection with puromycin or blasticidin. No drug selection was used in case the construct lacked an antibiotic resistance gene. The SAR-expressing Jurkat-NFAT-GFP cells were cocultured with the target cells at E:T ratio of approximately 1:2 for approximately 4 hours to 18 hours. When the interaction between SIRs and their target antigen results in activation of the NFAT pathway, GFP expression is induced. […] GFP expression was monitored by FACS analysis. The Jurkat-NFAT-GFP (parental) cells were used as control. The structure of different constructs can be determined based on their names. […] The sequence of the other constructs in the table can be similarly determined from their names and by referring to the different Tables of this disclosure that provide the names and SEQ ID NO of the different modules. Alternatively, the composition and modular architecture of the different SAR constructs can be determined from their sequences by bioinformatics tools, including using nucleic acid and amino acids homology searches. […] The signs +/-, +, 2+ etc. after the name of the cell lines indicate the relative degree of positivity on the Jurkat-NFAT-GFP assay as measured by the % GFP positive cells after culture of the SAR expressing Jurkat-NFAT-GFP cells with that cell line above the % GFP cells observed in parental Jurkat NFAT-GFP cells serving as controls. […]

B1: 4090 (protein)
chain: MALPVTALLLPLALLLHAARPDIQMTQSPSSLSASVGDRVTITCKASDHINNWLAWYQQKPGQAPKLLIYGATTLETGVPSRFSGSGSGTDYTLTISSLQPEDFATYYCQQSWNTPWTFGQGTKLEIKRLEDLKNVFPPEVAVFEPSEAEISHTQKATLVCLATGFYPDHVELSWWVNGKEVHSGVCTDPQPLKEQPALNDSRYCLSSRLRVSATFWQNPRNHFRCQVQFYGLSENDEWTQDRAKPVTQIVSAEAWGRADCGFTSESYQQGVLSATILYEILLGKATLYAVLVSALVLMAMVKRKDSRGRAKRSGSGATNFSLLKQAGDVEENPGPTSMDWIWRILFLVGAATGAHSGPQVQLQESGGGLAQAGGSLRLSCAASGRTFSMGWFRQAPGKEREFVAAITYSGGSPYYASSVRGRFTISRDNAKNTVYLQMNSLKPEDTAVYYCAANPTYGSDWNAENWGQGTQVTVSSGSGGGGSGGGGSGGGGSFEQVQLQQPGAELVKPGASVKMSCKASGYAFSSYWINWMKQKPGQGLEWIGQIYPGDGDTNYNGKFKGRATLTADTSSSTAYMQLSSLTSEDSAVYFCARSITTVVGCAMDYWGQGTSVTVSSTRIQNPDPAVYQLRDSKSSDKSVCLFTDFDSQTNVSQSKDSDVYITDKCVLDMRSMDFKSNSAVAWSNKSDFACANAFNNSIIPEDTFFPSPESSCDVKLVEKSFETDTNLNFQNLSVIGFRILLLKVAGFNLLMTLRLWSSRAKRSGSGVKQTLNFDLLKLAGDVESNPGPSRGHMTEYKPTVRLATRDDVPRAVRTLAAAFADYPATRHTVDPDRHIERVTELQELFLTRVGLDIGKVWVADDGAAVAVWTTPESVEAGAVFAEIGPRMAELSGSRLAAQQQMEGLLAPHRPKEPAWFLATVGVSPDHQGKGLGSAVVLPGVEAAERAGVPAFLETSAPRNLPFYERLGFTVTADVEVPEGPRTWCMTRKPGA
modifications: Synthetic Polynucloetide
With B1 the “GFP induction (JNG-GFP induction assay), DAUDI” value (DAUDI (CD20+) cells) was “highly positive”, the “GFP induction (JNG-GFP induction assay), RS;411” value (RS411 cells) was “highly positive” and the “GFP induction (JNG-GFP induction assay), RAJI WT” value (RAJI cells) was “positive”.

B2: 22164 (protein)
chain: MALPVTALLLPLALLLHAARPDIQMTQSPSSLSASVGDRVTITCKASDHINNWLAWYQQKPGQAPKLLIYGATTLETGVPSRFSGSGSGTDYTLTISSLQPEDFATYYCQQSWNTPWTFGQGTKLEIKRLEDLKNVFPPEVAVFEPSEAEISHTQKATLVCLATGFYPDHVELSWWVNGKEVHSGVCTDPQPLKEQPALNDSRYCLSSRLRVSATFWQNPRNHFRCQVQFYGLSENDEWTQDRAKPVTQIVSAEAWGRADCGFTSESYQQGVLSATILYEILLGKATLYAVLVSALVLMAMVKRKDSRGRAKRSGSGATNFSLLKQAGDVEENPGPTSATMDWIWRILFLVGAATGAHSGPEVQLVESGGGLVQAGGSLRLSCAASGSVFSGNVMGWYRQAPGKEREWVAAIASGGSIYYRDSVKGRFTISRDNAKNTVYLQMNSLKPEDTAVYYCNSHPPTLPYWGLGTQVTVSSGSGGGGSGGGGSGGGGSFEQVQLQQPGAELVKPGASVKMSCKASGYAFSSYWINWMKQKPGQGLEWIGQIYPGDGDTNYNGKFKGRATLTADTSSSTAYMQLSSLTSEDSAVYFCARSITTVVGCAMDYWGQGTSVTVSSTRIQNPDPAVYQLRDSKSSDKSVCLFTDFDSQTNVSQSKDSDVYITDKCVLDMRSMDFKSNSAVAWSNKSDFACANAFNNSIIPEDTFFPSPESSCDVKLVEKSFETDTNLNFQNLSVIGFRILLLKVAGFNLLMTLRLWSSRAKRSGSGVKQTLNFDLLKLAGDVESNPGPSRGHMTEYKPTVRLATRDDVPRAVRTLAAAFADYPATRHTVDPDRHIERVTELQELFLTRVGLDIGKVWVADDGAAVAVWTTPESVEAGAVFAEIGPRMAELSGSRLAAQQQMEGLLAPHRPKEPAWFLATVGVSPDHQGKGLGSAVVLPGVEAAERAGVPAFLETSAPRNLPFYERLGFTVTADVEVPEGPRTWCMTRKPGA
B2 was tested, and the “NFAT-GFP ASSAY: L428” value (L428 cells; co-culture with L428) was 3+ (refer to approximately 5%, 10%, 20%, 30%, 40% and 50% GFP positive cells).

B3: SEQ ID NO: 22292: D domain (Afo3) binding a p26 domain, attached to the N-terminus of the vL fragment of a hu-mROO5-1 based SIR (protein)
chain: MALPVTALLLPLALLLHAARPACMGSWFEFYDRLNAIDARLWALGGSEAELAAFEKEIAAFESELQAYKGKGNPEVENLRVHAAAIREWLQAYRHNGTGGGGSGGGGSGGGGSEFDIQMTQSPSSLSASVGDRVTITCKASDHINNWLAWYQQKPGQAPKLLIYGATTLETGVPSRFSGSGSGTDYTLTISSLQPEDFATYYCQQSWNTPWTFGQGTKLEIKRLEDLKNVFPPEVAVFEPSEAEISHTQKATLVCLATGFYPDHVELSWWVNGKEVHSGVCTDPQPLKEQPALNDSRYCLSSRLRVSATFWQNPRNHFRCQVQFYGLSENDEWTQDRAKPVTQIVSAEAWGRADCGFTSESYQQGVLSATILYEILLGKATLYAVLVSALVLMAMVKRKDSRGRAKRSGSGATNFSLLKQAGDVEENPGPTSMDWIWRILFLVGAATGAHSFEQVQLQQPGAELVKPGASVKMSCKASGYAFSSYWINWMKQKPGQGLEWIGQIYPGDGDTNYNGKFKGRATLTADTSSSTAYMQLSSLTSEDSAVYFCARSITTVVGCAMDYWGQGTSVTVSSTRIQNPDPAVYQLRDSKSSDKSVCLFTDFDSQTNVSQSKDSDVYITDKCVLDMRSMDFKSNSAVAWSNKSDFACANAFNNSIIPEDTFFPSPESSCDVKLVEKSFETDTNLNFQNLSVIGFRILLLKVAGFNLLMTLRLWSSRAKRSGSGVKQTLNFDLLKLAGDVESNPGPSRGHMTEYKPTVRLATRDDVPRAVRTLAAAFADYPATRHTVDPDRHIERVTELQELFLTRVGLDIGKVWVADDGAAVAVWTTPESVEAGAVFAEIGPRMAELSGSRLAAQQQMEGLLAPHRPKEPAWFLATVGVSPDHQGKGLGSAVVLPGVEAAERAGVPAFLETSAPRNLPFYERLGFTVTADVEVPEGPRTWCMTRKPGA
For B3, the GFP induction (L428 cells; L428 cells (CD123+), only in the presence of SAR adaptor bc40-p26-CD123-cg06 (SEQ ID NO: 23120)) was “robust induction of GFP”.

B4: 22292 (protein)
chain: B3 chain
With B4 the “NFAT-GFP ASSAY: L428 with bc40-p26-CD123-cg06” value (L428 cells; L428 in presence of SAR adaptor bc40-p26-CD123-cg06) was “+3”.

From patent publication US20230212319A1, “NOVEL ANTIGEN BINDING DOMAINS AND SYNTHETIC ANTIGEN RECEPTORS INCORPORATING THE SAME” (University of Southern California, priority 2020, published 2023)
